For the data set the following is noted: Escherichia coli (strain K12); pH 7.5; 25 °C; Urea; DSC; potassium-HEPES 40 mM; reversible: yes; whole UniProt chain shown.

B1: Aspartate aminotransferase wild type, P00509 (protein)
chain: MFENITAAPADPILGLADLFRADERPGKINLGIGVYKDETGKTPVLTSVKKAEQYLLENETTKNYLGIDGIPEFGRCTQELLFGKGSALINDKRARTAQTPGGTGALRVAADFLAKNTSVKRVWVSNPSWPNHKSVFNSAGLEVREYAYYDAENHTLDFDALINSLNEAQAGDVVLFHGCCHNPTGIDPTLEQWQTLAQLSVEKGWLPLFDFAYQGFARGLEEDAEGLRAFAAMHKELIVASSYSKNFGLYNERVGACTLVAADSETVDRAFSQMKAAIRANYSNPPAHGASVVATILSNDALRAIWEQELTDMRQRIQRMRQLFVNTLQEKGANRDFSFIIKQNGMFSFSGLTKEQVLRLREEFGVYAVASGRVNVAGMTPDNMAPLCEAIVAVL
For the protein B1, the denaturant m value is 2.56 kcal/mol/M, the “denaturant midpoint (higher = more stable)” value was determined as 3.89 M and the unfolding free energy turned out to be 9.96 kcal/mol.

Values taken from FireProtDB (doi:10.1021/bi00116a007).
